Assay results published in article PMC3667720.

Target: β-actin (human (endogenous in MDA-MB-231)) (UniProt P60709)
Test: FRET or BRET

cofilin (from UniProt P23528 1-166) (natural protein)
FRET efficiency (control siRNA, 0 min EGF): 4.34% | FRET efficiency (β1 integrin siRNA, 0 min EGF): 3.85% | increase in FRET efficiency 3 min after EGF against 0 min (control cells): 40%
